Assay results: patent publication US20240287163A1 (Chugai, published 2024)

T1: recombinant cynomolgus C1r2s2 tetramer (cynomolgus monkey, limits assumed)
T1 construct: also called cyC1r2s2; monkey C1r2s2
T1 chain 1: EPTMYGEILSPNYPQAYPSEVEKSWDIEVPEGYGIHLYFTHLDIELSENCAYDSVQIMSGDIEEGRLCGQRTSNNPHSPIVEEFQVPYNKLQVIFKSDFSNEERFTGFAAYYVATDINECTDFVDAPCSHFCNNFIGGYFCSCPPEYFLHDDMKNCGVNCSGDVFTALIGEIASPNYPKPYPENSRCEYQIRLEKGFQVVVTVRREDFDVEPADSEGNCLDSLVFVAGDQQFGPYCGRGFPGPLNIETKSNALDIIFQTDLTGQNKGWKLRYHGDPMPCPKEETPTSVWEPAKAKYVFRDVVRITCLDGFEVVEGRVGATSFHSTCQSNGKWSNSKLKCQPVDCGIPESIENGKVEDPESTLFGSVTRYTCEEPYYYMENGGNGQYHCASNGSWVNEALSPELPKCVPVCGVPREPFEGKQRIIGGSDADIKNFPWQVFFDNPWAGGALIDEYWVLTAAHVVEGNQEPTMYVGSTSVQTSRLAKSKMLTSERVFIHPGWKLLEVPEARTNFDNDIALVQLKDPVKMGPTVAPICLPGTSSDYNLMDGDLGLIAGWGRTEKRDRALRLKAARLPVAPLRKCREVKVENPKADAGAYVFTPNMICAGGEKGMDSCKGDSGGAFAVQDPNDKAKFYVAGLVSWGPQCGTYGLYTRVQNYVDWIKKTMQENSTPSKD
T1 chain 2: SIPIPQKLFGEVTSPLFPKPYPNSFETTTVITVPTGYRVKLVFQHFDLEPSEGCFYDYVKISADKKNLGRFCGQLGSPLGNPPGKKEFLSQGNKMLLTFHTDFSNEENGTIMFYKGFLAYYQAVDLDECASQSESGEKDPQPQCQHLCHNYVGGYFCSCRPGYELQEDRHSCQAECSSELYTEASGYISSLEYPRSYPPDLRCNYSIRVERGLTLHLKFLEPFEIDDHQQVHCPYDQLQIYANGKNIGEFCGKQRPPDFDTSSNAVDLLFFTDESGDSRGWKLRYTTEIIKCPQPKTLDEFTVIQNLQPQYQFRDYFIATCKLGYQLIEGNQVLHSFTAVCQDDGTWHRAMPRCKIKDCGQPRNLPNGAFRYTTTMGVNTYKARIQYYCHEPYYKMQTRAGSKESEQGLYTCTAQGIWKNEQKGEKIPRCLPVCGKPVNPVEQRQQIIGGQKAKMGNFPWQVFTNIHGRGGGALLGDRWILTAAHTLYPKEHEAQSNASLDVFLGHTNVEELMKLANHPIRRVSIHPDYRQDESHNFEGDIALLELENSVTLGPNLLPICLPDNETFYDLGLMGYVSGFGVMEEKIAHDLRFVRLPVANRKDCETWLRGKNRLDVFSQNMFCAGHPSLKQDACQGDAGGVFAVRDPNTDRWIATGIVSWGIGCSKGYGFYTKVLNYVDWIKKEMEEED

T2: recombinant human C1r2s2 tetramer (human, UniProt P09871 16-688; P00736 18-705)
T2 construct: C1s and C1r co-expressed in HEK293 and purified from the supernatant as tetramer; also called hC1r2s2
T2 chain 1: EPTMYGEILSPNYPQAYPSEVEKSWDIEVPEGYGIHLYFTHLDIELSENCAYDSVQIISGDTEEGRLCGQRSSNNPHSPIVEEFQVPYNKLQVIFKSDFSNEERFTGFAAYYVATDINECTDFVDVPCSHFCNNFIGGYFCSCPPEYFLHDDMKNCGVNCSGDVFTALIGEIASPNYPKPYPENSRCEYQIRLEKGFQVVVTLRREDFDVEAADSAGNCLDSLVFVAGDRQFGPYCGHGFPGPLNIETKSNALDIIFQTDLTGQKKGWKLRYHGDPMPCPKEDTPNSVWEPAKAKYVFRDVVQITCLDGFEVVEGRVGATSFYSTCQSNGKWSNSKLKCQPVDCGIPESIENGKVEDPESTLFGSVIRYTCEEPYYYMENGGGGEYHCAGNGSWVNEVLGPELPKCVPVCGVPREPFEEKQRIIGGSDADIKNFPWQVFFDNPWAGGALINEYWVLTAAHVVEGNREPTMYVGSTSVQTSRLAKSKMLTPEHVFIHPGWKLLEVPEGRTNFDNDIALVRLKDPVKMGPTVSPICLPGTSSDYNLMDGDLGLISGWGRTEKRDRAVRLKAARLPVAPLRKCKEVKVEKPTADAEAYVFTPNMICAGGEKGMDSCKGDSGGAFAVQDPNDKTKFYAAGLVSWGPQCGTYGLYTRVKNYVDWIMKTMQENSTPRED
T2 chain 2: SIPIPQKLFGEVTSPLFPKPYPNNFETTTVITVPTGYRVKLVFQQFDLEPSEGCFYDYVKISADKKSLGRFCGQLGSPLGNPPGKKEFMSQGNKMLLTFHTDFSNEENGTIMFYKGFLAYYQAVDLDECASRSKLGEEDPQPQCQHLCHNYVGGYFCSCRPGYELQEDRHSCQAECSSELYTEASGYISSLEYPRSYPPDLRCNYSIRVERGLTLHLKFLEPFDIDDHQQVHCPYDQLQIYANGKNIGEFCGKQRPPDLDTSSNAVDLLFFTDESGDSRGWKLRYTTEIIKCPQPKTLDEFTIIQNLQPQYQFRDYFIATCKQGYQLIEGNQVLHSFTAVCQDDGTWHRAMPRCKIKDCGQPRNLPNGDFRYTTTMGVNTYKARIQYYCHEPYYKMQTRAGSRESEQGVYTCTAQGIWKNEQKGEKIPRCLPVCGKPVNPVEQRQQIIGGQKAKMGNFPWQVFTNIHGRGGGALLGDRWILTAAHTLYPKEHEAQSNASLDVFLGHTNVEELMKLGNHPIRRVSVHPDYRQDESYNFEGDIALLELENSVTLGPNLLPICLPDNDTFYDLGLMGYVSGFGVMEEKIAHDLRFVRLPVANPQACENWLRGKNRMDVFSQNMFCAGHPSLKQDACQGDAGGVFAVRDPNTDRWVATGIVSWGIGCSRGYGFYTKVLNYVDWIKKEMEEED


What was measured:
[1] = molecular target: T1, recombinant cynomolgus C1r2s2 tetramer; assay: SPR (Biacore T200), 37 C, pH 7.4; cyC1r2s2 captured by IPN009, antibody as analyte
Description: (§1) The binding property of each sample at pH7.4 and pH6.0 was determined at 37° C. using BIACORE® T200 instrument (Cytiva). […] 20 mM ACES, 150 mM NaCl, 1.2 mM CaCl₂, 1 mg/mL BSA (not containing IgG), 1 mg/mL CMD, 0.05% Tween® 20, 0.005 w/v % NaN₃, pH7.4 or pH6.0 buffer was used as the running buffer. […] The antibody solution was added thereto at 30 μL/min for 120 seconds, the running buffer was then added at 30 μL/min for 180 seconds, and the dissociation constant (KD) of each antibody for hC1r2s2 and cyC1r2s2 was calculated. […] The sensor surface was regenerated every cycle, using 3 M MgCl2 (prepared in-house). The KD value was calculated using BIACORE® T200 evaluation software version 2.0 (Cytiva). The binding strengths under each pH condition were compared by dividing the KD value at pH6.0 with the KD value at pH7.4.

[2] = molecular target: T1, recombinant cynomolgus C1r2s2 tetramer; assay: SPR (Biacore T200), 37 C, pH 6.0; cyC1r2s2 captured by IPN009, antibody as analyte
Description: as §1

[3] = molecular target: T1, recombinant cynomolgus C1r2s2 tetramer; assay: SPR (Biacore T200), 37 C; ratio of KD at pH 6.0 to KD at pH 7.4
Description: as §1

[4] = molecular target: T2, recombinant human C1r2s2 tetramer; assay: as above
Description: as §1

[5] = molecular target: T2, recombinant human C1r2s2 tetramer; assay: SPR (Biacore T200), 37 C, pH 7.4; hC1r2s2 captured by IPN009, antibody as analyte
Description: as §1

[6] = molecular target: T2, recombinant human C1r2s2 tetramer; assay: SPR (Biacore T200), 37 C, pH 6.0; hC1r2s2 captured by IPN009, antibody as analyte
Description: as §1

| Binder | Kd [1] | Kd [2] | KD (pH 6.0)/KD (pH 7.4) [3] | KD (pH 6.0)/KD (pH 7.4) [4] | Kd [5] | Kd [6] |
| --- | --- | --- | --- | --- | --- | --- |
| COS0637pHv17-G1A3FcgSil+LowpI (antibody, V domains shown, VH 24, VL 55, CH 45, CL 23) VH: QVQLVESGGGVVQPGRSLRLSCAASGFTFSAYAMNWIRQPPGKGLEWIGLIYGSGHEFYASWAEERVTISVDTSKNQFSLKLSSVTAADTAVYYCARGRSKNYNSDFHLWGQGTLVTVSS VL: DIQMTQSPSSLSASVGDRVTITCQAHEILHDKKNLAWYQQKPGQPPKLLIYGASQRESGVPSRFSGSGSGTDFTLTISSLQPEDFATYYCHGEFPHSSADLNHFGQGTKVEIKR | 0.252 nM | 106 nM | 421 | 143 | 0.23 nM | 32.9 nM |
| COS0637pHv8-G1A3FcgSil+LowpI (antibody, built from VH+CH and VL+CL) heavy: QVQLVESGGGVVQPGRSLRLSCAASGFTFSAYAMNWIRQPPGKGLEWIGLIYGSGHEFYASWAEERVTISVDTSKNQFSLKLSSVTAADTAVYYCARGRSKNYNSDFHLWGQGTLVTVSSASTKGPSVFPLAPSSRSTSESTAALGCLVKDYFPEPVTVSWNSGALTSGVHTFPAVLQSSGLYSLSSVVTVPSSSLGTQTYICNVNHKPSNTKVDKRVEPKSCDKTHTCPPCPAPELRRGPSVFLFPPKPKDTLMISRTPEVTCVVVDVSQEDPEVQFNWYVDGVEVHNAKTKPREEQYNSTYRVVSVLTVLHQDWLNGKEYKCKVSNKALPAPIEKTISKAKGQPREPQVYTLPPSQEEMTKNQVSLTCLVKGFYPSDIAVEWESNGQPENNYKTTPPVLDSDGSFFLYSKLTVDKSRWQEGNVFSCSVLHEALHAHTTRKELSLSP light: DIQMTQSPSSLSASVGDRVTITCQANQILHDKKNLAWYQQKPGQPPKLLIYGASTLESGVPSRFSGSGSGTDFTLTISSLQPEDFATYYCHGEFSYSSADLNTFGQGTKVEIKRTVAAPSVFIFPPSDEQLKSGTASVVCLLNNFYPREAKVQWKVDNALQSGNSQESVTEQDSKDSTYSLSSTLTLSKADYEKHKVYACEVTHQGLSSPVTKSFNRGEC | 0.365 nM | 30.3 nM | 83 | 71 | 0.272 nM | 19.3 nM |
| COS0637pHv15-G1A3FcgSil+LowpI (antibody, V domains shown, VH 24, VL 59, CH 45 (G1A3FcgSil+LowpI), CL 23) VH: QVQLVESGGGVVQPGRSLRLSCAASGFTFSAYAMNWIRQPPGKGLEWIGLIYGSGHEFYASWAEERVTISVDTSKNQFSLKLSSVTAADTAVYYCARGRSKNYNSDFHLWGQGTLVTVSS VL: DIQMTQSPSSLSASVGDRVTITCQANEILHDKKNLAWYQQKPGQPPKLLIYGASTLESGVPSRFSGSGSGTDFTLTISSLQPEDFATYYCHGEFSYHSADLNTFGQGTKVEIKR | 0.492 nM | 111 nM | 226 | 797 | 0.399 nM | 318 nM |

Continued by falling Kd [1], values first:

| Kd [1] | Kd [2] | KD (pH 6.0)/KD (pH 7.4) [3] | KD (pH 6.0)/KD (pH 7.4) [4] | Kd [5] | Kd [6] | Binder |
| --- | --- | --- | --- | --- | --- | --- |
| 0.345 nM | 23.3 nM | 67.5 | 50.2 | 0.249 nM | 12.5 nM | COS0637pHv8-TT91R (antibody, human IgG1, also called COS637pHv8-TT91R) heavy: QVQLVESGGGVVQPGRSLRLSCAASGFTFSAYAMNWIRQPPGKGLEWIGLIYGSGHEFYASWAEERVTISVDTSKNQFSLKLSSVTAADTAVYYCARGRSKNYNSDFHLWGQGTLVTVSSASTKGPSVFPLAPSSKSTSGGTAALGCLVKDYFPEPVTVSWNSGALTSGVHTFPAVLQSSGLYSLSSVVTVPSSSLGTQTYICNVNHKPSNTKVDKRVEPKSCDKTHTCPPCPAPEYLGGDSVFLFPPKPKDVLMISRTPEVTCVVIDVSHEDPEVKFNWYVDGVEVHNAKTKPREEQYNSTYRVVSVLPVLHRDWLNGKEYKCKVSNKALPKPIEKTISKAKGQRREPQVYTLPPSREEMTKNQVSLTCLVKGFYPSDIAVEWESNGQPENNYKTTPPVLDSDGSFFLYSKLTVDKSRWQQGNVFSCSVLHEALHAHTTRKELSLSP light: DIQMTQSPSSLSASVGDRVTITCQANQILHDKKNLAWYQQKPGQPPKLLIYGASTLESGVPSRFSGSGSGTDFTLTISSLQPEDFATYYCHGEFSYSSADLNTFGQGTKVEIKRTVAAPSVFIFPPSDEQLKSGTASVVCLLNNFYPREAKVQWKVDNALQSGNSQESVTEQDSKDSTYSLSSTLTLSKADYEKHKVYACEVTHQGLSSPVTKSFNRGEC |
| 0.196 nM | 91.2 nM | 465 | 161 | 0.181 nM | 29.2 nM | COS0637pHv16-G1A3FcgSil+LowpI (antibody, V domains shown, VH 36, VL 55, CH 45, CL 23) VH: QVQLVESGGGVVQPGRSLRLSCAASGFTFSAYTMNWIRQPPGKGLEWIGLIYGSGHEFYASWAEERVTISVDTSKNQFSLKLSSVTAADTAVYYCARGRSKNYNSDFHLWGQGTLVTVSS VL: DIQMTQSPSSLSASVGDRVTITCQAHEILHDKKNLAWYQQKPGQPPKLLIYGASQRESGVPSRFSGSGSGTDFTLTISSLQPEDFATYYCHGEFPHSSADLNHFGQGTKVEIKR |
